Assay results as given in US8709448B2, “Anti-infective agents and uses thereof” (priority 2008, dated 2014).

Test system: PBMC

## IFNα
  effect on overall PBMC culture viability: no effect
